Columns and labels:
Assay in all cases: two-hybrid library CCNG1;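 further: natural log of median RNA to DNA barcode read ratio; higher means stronger binding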
4H1449-bH = molecular target: T1, 4H1449-bH
T1 chain: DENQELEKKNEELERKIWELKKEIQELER

4H1544-bH = molecular target: T2, 4H1544-bH
T2 chain: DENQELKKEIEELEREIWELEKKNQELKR

4H1629-bH = molecular target: T3, 4H1629-bH
T3 chain: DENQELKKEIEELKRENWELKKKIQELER

4H1710-bH = molecular target: T4, 4H1710-bH
T4 chain: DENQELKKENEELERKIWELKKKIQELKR

4H1804-bH = molecular target: T5, 4H1804-bH
T5 chain: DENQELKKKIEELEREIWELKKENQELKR

4H1899-bH = molecular target: T6, 4H1899-bH
T6 chain: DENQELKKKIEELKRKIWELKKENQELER

4H1985-bH = molecular target: T7, 4H1985-bH
T7 chain: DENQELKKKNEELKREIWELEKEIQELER

4H3129-bH = molecular target: T8, 4H3129-bH
T8 chain: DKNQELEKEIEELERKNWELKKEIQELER

4H3172-bH = molecular target: T9, 4H3172-bH
T9 chain: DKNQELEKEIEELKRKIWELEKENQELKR

4H3414-bH = molecular target: T10, 4H3414-bH
T10 chain: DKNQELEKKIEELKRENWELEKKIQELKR

4H3592-bA = molecular target: T11, 4H3592-bA
T11 chain: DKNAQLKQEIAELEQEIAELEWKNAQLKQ

4H3613-bH = molecular target: T12, 4H3613-bH
T12 chain: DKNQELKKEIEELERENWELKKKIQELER

4H3628-bH = molecular target: T13, 4H3628-bH
T13 chain: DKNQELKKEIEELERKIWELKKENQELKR

4H3631-bH = molecular target: T14, 4H3631-bH
T14 chain: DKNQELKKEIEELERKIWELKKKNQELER

4H3638-bH = molecular target: T15, 4H3638-bH
T15 chain: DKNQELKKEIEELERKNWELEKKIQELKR

4H3817-bH = molecular target: T16, 4H3817-bH
T16 chain: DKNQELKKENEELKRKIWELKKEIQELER

4H3858-bH = molecular target: T17, 4H3858-bH
T17 chain: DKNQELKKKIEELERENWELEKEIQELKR

4H3974-bH = molecular target: T18, 4H3974-bH
T18 chain: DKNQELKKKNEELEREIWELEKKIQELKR

4H570-bH = molecular target: T19, 4H570-bH
T19 chain: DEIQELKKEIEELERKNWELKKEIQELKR

4H584-bH = molecular target: T20, 4H584-bH
T20 chain: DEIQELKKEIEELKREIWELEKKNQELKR

4H619-bH = molecular target: T21, 4H619-bH
T21 chain: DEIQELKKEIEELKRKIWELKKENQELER

4H850-bH = molecular target: T22, 4H850-bH
T22 chain: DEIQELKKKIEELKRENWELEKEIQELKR

4H906-bH = molecular target: T23, 4H906-bH
T23 chain: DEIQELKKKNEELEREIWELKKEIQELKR

B1: 4H1449-bH (peptide)
chain: DENQELEKKNEELERKIWELKKEIQELER
B1 showed an interaction score (4H1449-bH) of -1.25, an interaction score (4H1544-bH) of -0.787 and an interaction score (4H1629-bH) of -0.891. It also gave an interaction score (4H1710-bH) of -0.366, an interaction score (4H1804-bH) of -0.461 and an interaction score (4H1899-bH) of -0.126. For the same binder, the interaction score (4H1985-bH) was -0.843, the interaction score (4H3129-bH) was -0.319 and the interaction score (4H3172-bH) was -0.0351. The interaction score (4H3414-bH) was -0.216, the interaction score (4H3592-bA) was -0.126 and the interaction score (4H3613-bH) was -0.131. For the same binder, the interaction score (4H3628-bH) was -0.479, the interaction score (4H3631-bH) was 0.733 and the interaction score (4H3638-bH) was -0.0745. The interaction score (4H3817-bH) was -0.644, the interaction score (4H3858-bH) was -0.658 and the interaction score (4H3974-bH) was 1.15. The interaction score (4H570-bH) was -0.108, the interaction score (4H584-bH) was -0.0853 and the interaction score (4H619-bH) was -2.2. It also gave an interaction score (4H850-bH) of -0.674 and an interaction score (4H906-bH) of -1.2.

Reference: PMC10397247
